Assay results published in IntAct's records for PubMed 24561201.

B1: ATP-sensitive inward rectifier potassium channel 10 (Homo sapiens), P78508 (parent)
chain: MTSVAKVYYSQTTQTESRPLMGPGIRRRRVLTKDGRSNVRMEHIADKRFLYLKDLWTTFIDMQWRYKLLLFSATFAGTWFLFGVVWYLVAVAHGDLLELDPPANHTPCVVQVHTLTGAFLFSLESQTTIGYGFRYISEECPLAIVLLIAQLVLTTILEIFITGTFLAKIARPKKRAETIRFSQHAVVASHNGKPCLMIRVANMRKSLLIGCQVTGKLLQTHQTKEGENIRLNQVNVTFQVDTASDSPFLILPLTFYHVVDETSPLKDLPLRSGEGDFELVLILSGTVESTSATCQVRTSYLPEEILWGYEFTPAISLSASGKYIADFSLFDQVVKVASPSGLRDSTVRYGDPEKLKLEESLREQAEKEGSALSVRISNV

Variants of: B1
Conditions: with MAGI1, A0A8I3NPD4
Chain of MAGI1, A0A8I3NPD4 (A0A8I3NPD4 entry or part of it): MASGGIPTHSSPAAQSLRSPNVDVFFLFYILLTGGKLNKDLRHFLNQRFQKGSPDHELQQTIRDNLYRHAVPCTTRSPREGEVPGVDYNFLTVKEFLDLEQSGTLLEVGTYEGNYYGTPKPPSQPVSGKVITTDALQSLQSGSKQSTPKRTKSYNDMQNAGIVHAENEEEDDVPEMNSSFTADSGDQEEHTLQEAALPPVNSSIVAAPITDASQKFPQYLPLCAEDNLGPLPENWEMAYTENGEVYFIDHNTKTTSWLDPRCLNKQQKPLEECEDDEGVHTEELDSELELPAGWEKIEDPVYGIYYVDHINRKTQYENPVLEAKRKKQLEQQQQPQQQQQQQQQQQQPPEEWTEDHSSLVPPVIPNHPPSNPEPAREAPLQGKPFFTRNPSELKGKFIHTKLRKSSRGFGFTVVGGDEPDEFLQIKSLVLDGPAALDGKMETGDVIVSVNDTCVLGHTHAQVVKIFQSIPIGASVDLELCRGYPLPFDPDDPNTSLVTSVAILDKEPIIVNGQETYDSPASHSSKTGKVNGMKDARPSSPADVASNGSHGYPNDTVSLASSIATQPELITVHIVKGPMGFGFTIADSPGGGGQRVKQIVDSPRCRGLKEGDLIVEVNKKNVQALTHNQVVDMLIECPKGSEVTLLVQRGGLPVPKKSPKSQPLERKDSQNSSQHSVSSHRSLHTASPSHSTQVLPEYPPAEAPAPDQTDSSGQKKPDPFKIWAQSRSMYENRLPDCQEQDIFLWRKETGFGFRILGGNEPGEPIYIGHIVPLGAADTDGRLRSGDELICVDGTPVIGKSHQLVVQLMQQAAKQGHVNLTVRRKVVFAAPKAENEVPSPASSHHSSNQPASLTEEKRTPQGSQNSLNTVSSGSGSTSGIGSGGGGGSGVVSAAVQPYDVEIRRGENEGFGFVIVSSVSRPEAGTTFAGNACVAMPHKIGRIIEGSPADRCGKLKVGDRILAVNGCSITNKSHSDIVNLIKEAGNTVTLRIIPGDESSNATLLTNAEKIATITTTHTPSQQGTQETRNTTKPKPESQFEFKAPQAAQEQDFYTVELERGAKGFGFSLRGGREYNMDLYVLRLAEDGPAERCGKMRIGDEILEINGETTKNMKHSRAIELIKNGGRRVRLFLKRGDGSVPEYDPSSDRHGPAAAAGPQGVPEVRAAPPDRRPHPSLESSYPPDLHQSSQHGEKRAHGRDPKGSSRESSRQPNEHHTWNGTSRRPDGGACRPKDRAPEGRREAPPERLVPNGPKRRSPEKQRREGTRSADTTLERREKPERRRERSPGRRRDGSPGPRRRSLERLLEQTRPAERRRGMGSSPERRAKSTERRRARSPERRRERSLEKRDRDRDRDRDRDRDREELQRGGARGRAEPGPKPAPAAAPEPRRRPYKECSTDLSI

Variant	effect of a mutation on the interaction
A167V	decreasing interaction
